Common to all, as to assay: cell-based or functional assay
For one experiment, the target named is hGLP-1R (Homo sapiens, UniProt P43220).
Experiment [1] deals with T1, human GIP receptor (human) (UniProt P48546).
T1 sequence (looked up): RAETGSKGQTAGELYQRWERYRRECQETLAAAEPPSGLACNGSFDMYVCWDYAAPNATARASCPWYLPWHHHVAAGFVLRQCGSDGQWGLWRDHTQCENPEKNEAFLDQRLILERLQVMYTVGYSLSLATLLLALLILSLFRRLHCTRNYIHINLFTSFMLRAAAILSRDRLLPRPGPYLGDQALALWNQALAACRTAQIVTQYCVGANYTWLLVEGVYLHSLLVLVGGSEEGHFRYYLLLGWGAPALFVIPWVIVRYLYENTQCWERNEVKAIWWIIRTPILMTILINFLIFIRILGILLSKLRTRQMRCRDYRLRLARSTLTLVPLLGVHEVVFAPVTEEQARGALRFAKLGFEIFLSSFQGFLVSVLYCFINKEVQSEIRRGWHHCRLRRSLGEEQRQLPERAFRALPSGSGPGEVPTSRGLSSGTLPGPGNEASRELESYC

Experiment [2] deals with human glucagon receptor (human) (UniProt P47871).
human glucagon receptor (human), sequence (P47871 26-477): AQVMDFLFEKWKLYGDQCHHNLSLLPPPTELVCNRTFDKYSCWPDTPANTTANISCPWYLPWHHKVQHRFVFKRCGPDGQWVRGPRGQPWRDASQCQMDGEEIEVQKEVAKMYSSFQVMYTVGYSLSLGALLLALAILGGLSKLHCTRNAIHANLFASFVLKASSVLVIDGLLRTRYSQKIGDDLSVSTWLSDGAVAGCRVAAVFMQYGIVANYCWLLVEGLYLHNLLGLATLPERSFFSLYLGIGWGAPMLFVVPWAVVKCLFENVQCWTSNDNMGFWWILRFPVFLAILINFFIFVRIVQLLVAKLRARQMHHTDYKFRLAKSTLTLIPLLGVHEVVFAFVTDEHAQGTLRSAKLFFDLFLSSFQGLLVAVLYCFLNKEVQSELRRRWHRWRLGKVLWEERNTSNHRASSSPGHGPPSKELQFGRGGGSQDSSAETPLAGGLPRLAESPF

The values that follow come from patent publication US20240270821A1, “GIP/GLP1/GCG TRI-RECEPTOR AGONISTS AND USES THEREOF” (priority 2023, published 2024).

Non-standard residues stand in square brackets, D forms with d. No end group written: not given here. αMePhe(2-F) = C[C@](N)(Cc1ccccc1F)C(=O)O; Aib = CC(C)(N)C(=O)O

hGLP-1R, sequence (P43220 24-463): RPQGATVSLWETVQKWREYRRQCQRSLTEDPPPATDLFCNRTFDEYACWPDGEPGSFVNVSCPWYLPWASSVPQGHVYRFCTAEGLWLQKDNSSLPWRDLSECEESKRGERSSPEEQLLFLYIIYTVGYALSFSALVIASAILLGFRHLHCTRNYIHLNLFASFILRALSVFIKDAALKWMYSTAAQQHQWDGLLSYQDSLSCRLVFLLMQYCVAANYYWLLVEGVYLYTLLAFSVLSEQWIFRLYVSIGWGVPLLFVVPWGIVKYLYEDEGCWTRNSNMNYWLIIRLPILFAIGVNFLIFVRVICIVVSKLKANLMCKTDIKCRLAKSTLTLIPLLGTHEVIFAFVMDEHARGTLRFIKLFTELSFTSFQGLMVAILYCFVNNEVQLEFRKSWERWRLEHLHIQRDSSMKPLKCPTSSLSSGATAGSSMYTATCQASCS

B1: Example 270 (peptide)
chain: YXQGTFTSDFSXXLDKKAQXAFIEWLLEGGSSSGAPPPSGH
modifications: synthetic construct; SITE 2: note = 2-Aminoisobutyric Acid; SITE 12: note = L-ornithine; SITE 13: note = alpha-methyl-leucine; SITE 17: note = Lysine is chemically modified through conjugation of the epsilon-amino group of the Lysine side chain with (2-[2-(2-Amino-ethoxy)-ethoxy]-acetyl)-(gamma-Glu)
As for B1, the results for the Relative cAMP EC50 (with hGLP-1R; in experiment [1]; in experiment [2]) were 3.2 nM, 0.26 nM and 5 nM, respectively. The figures for the cAMP Rel EC50 (in the presence of 1% HSA) (with hGLP-1R; in experiment [1]; in experiment [2]) were 658 nM, 36.5 nM and 1060 nM, respectively.

B2: Example 269 (peptide)
chain: YXQGTFTSDFSXXLDKKAQXAFIEWLLEGGHSSGAPPPSGH
modifications: synthetic construct; SITE 2: note = 2-Aminoisobutyric Acid; SITE 12: note = L-ornithine; SITE 13: note = alpha-methyl-leucine; SITE 17: note = Lysine is chemically modified through conjugation of the epsilon-amino group of the Lysine side chain with (2-[2-(2-Amino-ethoxy)-ethoxy]-acetyl)-(gamma-Glu)
With B2, the Relative cAMP EC50 with hGLP-1R turned out to be 3.23 nM; in experiment [1], 0.288 nM; in experiment [2] it was 7.69 nM. In addition, the figures for the cAMP Rel EC50 (in the presence of 1% HSA) (with hGLP-1R; in experiment [1]; in experiment [2]) were 428 nM, 21.9 nM and 1100 nM, respectively.

B3: Example 272 (peptide)
chain: YXQGTFTSDFSXXLDKKAQXAFIEWLLEGGSSSGAPPPGGT
modifications: synthetic construct; SITE 2: note = 2-Aminoisobutyric Acid; SITE 12: note = L-ornithine; SITE 13: note = alpha-methyl-leucine; SITE 17: note = Lysine is chemically modified through conjugation of the epsilon-amino group of the Lysine side chain with (2-[2-(2-Amino-ethoxy)-ethoxy]-acetyl)-(gamma-Glu)
For the molecule B3, the results for the Relative cAMP EC50 (in the experiment with hGLP-1R; in experiment [1]; in experiment [2]) were 2.62 nM, 0.254 nM and 7.91 nM, respectively. Moreover, the cAMP Rel EC50 (in the presence of 1% HSA) with hGLP-1R stood at 486 nM; in experiment [1], 36.3 nM; in experiment [2], 1540 nM.

B4: Example 273 (peptide)
chain: YXQGTFTSDFSXXLDKKAQXAFIEWLLEGGHSSGAPPPGGE
modifications: synthetic construct; SITE 2: note = 2-Aminoisobutyric Acid; SITE 12: note = L-ornithine; SITE 13: note = alpha-methyl-leucine; SITE 17: note = Lysine is chemically modified through conjugation of the epsilon-amino group of the Lysine side chain with (2-[2-(2-Amino-ethoxy)-ethoxy]-acetyl)-(gamma-Glu)
Take B4: the Relative cAMP EC50 is 4.02 nM with hGLP-1R, 0.243 nM in experiment [1] and 6.96 nM in experiment [2]. In addition, the cAMP Rel EC50 (in the presence of 1% HSA) was 516 nM with hGLP-1R, 21.8 nM in experiment [1] and 1770 nM in experiment [2].

B5: Example 146 (peptide)
chain: YXQGTFTSDFSKXLDKKAQXAFIEYLLEGGESSGAPPPSGS
modifications: synthetic construct; SITE 2: note = 2-Aminoisobutyric Acid; SITE 13: note = alpha-methyl-leucine; SITE 17: note = Lysine is chemically modified through conjugation of the epsilon-amino group of the Lysine side chain with (2-[2-(2-Amino-ethoxy)-ethoxy]-acetyl)-(gamma-Glu)-CO-(CH2) 16-CO2H; SITE 20: n
As to B5, the results for the cAMP Rel EC50, nM (in the presence of 1% HSA) (in the experiment with hGLP-1R; in experiment [1]; in experiment [2]) were 678 nM, 74.6 nM and 463 nM, respectively.

B6: Example 264 (peptide)
chain: YXQGTFTSDFSXXLDKKAQXAFIEWLLEXGSSSGAPPPSGT
modifications: synthetic construct; SITE 2: note = 2-Aminoisobutyric Acid; SITE 12: note = L-ornithine; SITE 13: note = alpha-methyl-leucine; SITE 17: note = Lysine is chemically modified through conjugation of the epsilon-amino group of the Lysine side chain with (2-[2-(2-Amino-ethoxy)-ethoxy]-acetyl)-(gamma-Glu)
On to B6, for which the values for the Relative cAMP EC50 (in the experiment with hGLP-1R; in experiment [1]; in experiment [2]) were 4.67 nM, 0.0884 nM and 6.29 nM, respectively. For the same molecule, the cAMP Rel EC50 (in the presence of 1% HSA) with hGLP-1R worked out at 688 nM; in experiment [1] it was 12.4 nM; in experiment [2] it was 1000 nM.

B7: Example 267 (peptide)
chain: YXQGTFTSDFSXXLDKKAQXAFIEWLLEGGXSSGAPPPSGE
modifications: synthetic construct; SITE 2: note = 2-Aminoisobutyric Acid; SITE 12: note = L-ornithine; SITE 13: note = alpha-methyl-leucine; SITE 17: note = Lysine is chemically modified through conjugation of the epsilon-amino group of the Lysine side chain with (2-[2-(2-Amino-ethoxy)-ethoxy]-acetyl)-(gamma-Glu)
On to B7, for which the Relative cAMP EC50 with hGLP-1R amounted to 5.86 nM; in experiment [1] it was 0.279 nM; in experiment [2], 5.74 nM. In addition, the cAMP Rel EC50 (in the presence of 1% HSA) with hGLP-1R came to 1020 nM; in experiment [1] it was 55.5 nM; in experiment [2] it was 1380 nM.

B8: Example 275 (peptide)
chain: YXQGTFTSDXSXXLDKKAQXAFIEYLLEAGPSSXAPPPSGT
modifications: synthetic construct; SITE 2: note = 2-Aminoisobutyric Acid; SITE 10: note = 3-(4-Pyridyl)-L-alanine; SITE 12: note = L-ornithine; SITE 13: note = alpha-methyl-leucine; SITE 17: note = Lysine is chemically modified through conjugation of the epsilon-amino group of the Lysine side chain with (2-[2-(2-
Take B8: the Relative cAMP EC50 with hGLP-1R was determined as 4.93 nM; in experiment [1], 0.318 nM; in experiment [2] it was 7.8 nM. For the same molecule, the cAMP Rel EC50 (in the presence of 1% HSA) with hGLP-1R was 692 nM; in experiment [1], 27.7 nM; in experiment [2], 882 nM.

B9: Example 277 (peptide)
chain: YXQGTFTSDFSXXLDKKAQXAFIEYLLEXGPSSGAPPPSGX
modifications: synthetic construct; SITE 2: note = 2-Aminoisobutyric Acid; SITE 12: note = L-ornithine; SITE 13: note = alpha-methyl-leucine; SITE 17: note = Lysine is chemically modified through conjugation of the epsilon-amino group of the Lysine side chain with (gamma-Glu)-(2-[2-(2-Amino-ethoxy)-ethoxy]-acetyl)
With B9, the Relative cAMP EC50 stood at 5.56 nM with hGLP-1R, 0.0672 nM in experiment [1] and 10.6 nM in experiment [2]. Besides, the cAMP Rel EC50 (in the presence of 1% HSA) with hGLP-1R is 639 nM; in experiment [1] it was 13.3 nM; in experiment [2], 1690 nM.

B10: Example 274 (peptide)
chain: YXQGTFTSDXSXXLDKKAQXAFIEYLLEAGPSSGAPPPSGX
modifications: synthetic construct; SITE 2: note = 2-Aminoisobutyric Acid; SITE 10: note = 3-(4-Pyridyl)-L-alanine; SITE 12: note = L-ornithine; SITE 13: note = alpha-methyl-leucine; SITE 17: note = Lysine is chemically modified through conjugation of the epsilon-amino group of the Lysine side chain with (2-[2-(2-
As to B10, the Relative cAMP EC50 with hGLP-1R was found to be 4.9 nM; in experiment [1], 0.296 nM; in experiment [2], 9.37 nM. For the same molecule, the cAMP Rel EC50 (in the presence of 1% HSA) in the experiment with hGLP-1R came out at 560 nM; in experiment [1], 27.6 nM; in experiment [2] it was 1120 nM.

With Y[Aib]QGT[αMePhe(2-F)]TSDYSKLLDEIAQKAFIEYLLEGGPSSGEPPPSEG-NH2 (not fully specified (residue 20)) [Example 303], the Relative cAMP EC50 worked out at 1.13 nM in the experiment with hGLP-1R, 0.116 nM in experiment [1] and 6.1 nM in experiment [2]. For the same molecule, the cAMP Rel EC50 (1% HSA) came to 257 nM in the experiment with hGLP-1R, 44.7 nM in experiment [1] and 9950 nM in experiment [2].
